This data set can be described thus: protein stability index of a GFP-peptide fusion (GPS, HEK-293T) (PSI 1-6); higher = more stable.
[1] abbreviates: treatment: DMSO, c terminus: a fixed tail appended.
The mark [2] stands for this setting: treatment: MLN4924 1 uM, 8 h, c terminus: a fixed tail appended.

The values that follow come from the supplement of paper PMC10567573.

± gives the standard deviation.
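Note: 24-mer peptide tiles fused after GFP, lentivirally expressed, FACS-sorted into six equal bins by GFP/DsRed ratio, decoded by Illumina sequencing, PSI is the read-weighted mean bin number.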

As for ISLALFVLPKPKVISCLEQGEEPW [ZNF75A], the protein stability index was 3.21 ± 0.49 under setting [1] and 2.9 ± 0.56 under setting [2].
The matching figures for HFQDNLHSVNRDLNELERLSNLVG [MED27]: 3.47 ± 0.19 and 3.52 ± 0.36.
The matching figures for TNDVETARCTAGTLHNLSHHREGL [CTNNB1]: 3.89 ± 0.19 and 4.07 ± 0.18.
The matching figures for EDLLQQMLERRYTPYPNLYPDQSP [CLCN6]: 3.28 ± 0.24 and 3.29 ± 0.15.
In the case of TFFEVSPLCNFNVIESFTELSRIV [RAB40C], the protein stability index reads like this: under setting [1], 2.46 ± 0.63; under setting [2], 2.15 ± 0.43.
LMYPSYTFSGDVQLAQDDIDGIQA [MMP1]: the protein stability index reads like this: under setting [1], 4.1 ± 0.15; under setting [2], 4.25 ± 0.25.
The matching figures for LGSGQFAIVRKCRQKGTGKEYAAK [DAPK3]: 3.55 ± 0.52 and 3.48 ± 0.16.
The matching figures for VQGGSEAWGPGTLAAAPEGLEDAG [TEX19]: 5.12 ± 0.36 and 5.41 ± 0.2.
For AILGEQRPRQRQRVYPKCTWLTTP [TCF25], the protein stability index reads like this: under setting [1], 2.46 ± 0.38; under setting [2], 2.05 ± 0.27.
MHTNYLSACSFTNSDMQILTASGD [GNB5]: the protein stability index reads like this: under setting [1], 2.99 ± 0.22; under setting [2], 3.27 ± 0.26.
The matching figures for KRIAHFDLKPENIMLLDKNVPNPR [DAPK3]: 3.68 ± 0.44 and 3.25 ± 0.77.
The matching figures for ICPKCWTLMTMAIRIIDRALKEDF [PRIM1]: 2.25 ± 0.26 and 2.57 ± 0.37.
With WSIPWKWLFGATAVALGGVALSVV [FKBP8], the protein stability index reads like this: under setting [1], 4.11 ± 0.43; under setting [2], 3.98 ± 0.14.
The matching figures for EGELGEYRQKLLMFLEISSYYDPG [VPS39]: 2.19 ± 0.22 and 2.18 ± 0.28.
The matching figures for SVIKDHHTRSITSCCFDPDSQRVA [WDR88]: 3.35 ± 0.2 and 3.41 ± 0.38.
In the case of KIRKIHTQRQYKEDESQSEEENDY [CEP70], the protein stability index by setting is: under setting [1], 5.14 ± 0.21; under setting [2], 5.16 ± 0.18.
The matching figures for RAIPELTKLLNDEDQVVVNKAAVM [CTNNB1]: 3.91 ± 0.16 and 3.89 ± 0.21.
Regarding VRVVFFPLFSNWWIQVTSLRIFVW [PHTF1], the protein stability index came to 2.79 ± 0.69 under setting [1] and 2.87 ± 0.77 under setting [2].
On to ESKKNRVEINDLDPEVFKEMMRFI [SPOPL], for which the protein stability index under setting [1] came to 1.55 ± 0.31.
PVRDECEERNRFTETREEDVTDEH [FAM9B] registered a protein stability index under setting [1] of 5.44 ± 0.21 and a protein stability index under setting [2] of 5.66 ± 0.24.
With KLQLQLNETKSQAFVSNSPKLFCP [PLD5], the protein stability index is 2.87 ± 0.075 under setting [1] and 2.95 ± 0.6 under setting [2].
The matching figures for EDYSRDEDHIAHIIELLGSIPRHF [SRPK2]: 2.62 ± 0.13 and 2.85 ± 0.31.
With TGEDVKVILKNSQGEEVAQRSTVF [LMNB1], the protein stability index under setting [1] stood at 4.7 ± 0.15 and the protein stability index under setting [2] amounted to 4.64 ± 0.09.
LPYTDGLSWELLDSHLGGNARGMG [CTBP1-DT]: the protein stability index by setting is: under setting [1], 2.98 ± 0.28; under setting [2], 3.29 ± 0.14.
In turn, GCSLHEEDTQRHETYHQQGQCQVL [TCAP] had a protein stability index under setting [1] of 4.35 ± 0.14 and a protein stability index under setting [2] of 4.32 ± 0.41.
Regarding CEETGELFEEPAPQALATRALPCP [FCHSD1], the protein stability index is, setting by setting: under setting [1], 4.95 ± 0.2; under setting [2], 4.9 ± 0.24.
Regarding RSIFGNAVSRELIEIGCEDKTLAF [MLH1], the protein stability index under setting [2] came to 2.97 ± 0.41.
RCHRGYTLDPNGKTCSRVDHCAQQ [MATN2]: the protein stability index runs as follows: under setting [1], 3.68 ± 0.28; under setting [2], 3.22 ± 0.34.
The matching figures for VAFVDRADIKQYIGPPSAAAIFKI [TRIP13]: 2.82 ± 0.66 and 2.36 ± 0.47.
As to KAGQPESRALALFDIQKIMQEKNP [ZNF8], the protein stability index under setting [1] came to 4.06 ± 0.36 and the protein stability index under setting [2] worked out at 4.26 ± 0.12.
The matching figures for FIYTAKLSLNMDNLQDTLEAASFL [KLHL13]: 2.65 ± 0.54 and 2.96 ± 0.48.
Consider TDNSIKPQELLEWELVVLGKLKWN [CCND2], for which the protein stability index by setting is: under setting [1], 2.65 ± 0.25; under setting [2], 2.81 ± 0.33.
Take FSKNLKLGIHEDSTNRRRLSELLR [HSP90AB1]: the protein stability index under setting [2] came to 2.43 ± 0.39.
Regarding STTDLRGTQFDYERGKGESTEDR [ZSWIM9], the protein stability index by setting is: (treatment: DMSO, c terminus: native) 5.28 ± 0.34; (treatment: MLN4924 1 uM, 8 h, c terminus: native) 5.43 ± 0.11.
As to RNPGPGRHRLITQVYLSHTAWTEA [INTS4], the protein stability index under setting [1] amounted to 2 ± 0.23 and the protein stability index under setting [2] turned out to be 2.29 ± 0.35.
For the sequence RDPLQTDTLQNDYFAIKQEVVTPD [ETS1], the protein stability index is 4.89 ± 0.42 under setting [1] and 4.9 ± 0.47 under setting [2].
The matching figures for PLNRFSSVPLDPMERPMSQADLEL [CBY2]: 4.47 ± 0.18 and 4.53 ± 0.28.
The matching figures for AFLELPHGSGGSGYPAAPPAVPFA [TBX6]: 2.55 ± 0.15 and 2.69 ± 0.39.
The matching figures for INSTAPFEEQENYFLLCDVLPEDR [ZNF277]: 3.92 ± 0.36 and 4.12 ± 0.18.
Sequence AANSYDLAIKAITSSAKVDMTFEE [FKBP8] returned a protein stability index under setting [1] of 4.28 ± 0.24 and a protein stability index under setting [2] of 4.36 ± 0.22.
For AGKSGTSTPTTPGSTAITPGTPPS [MAP2], the protein stability index runs as follows: under setting [1], 5.11 ± 0.33; under setting [2], 5.11 ± 0.44.
With LYTPSNEHFGIVPLEAMYMQCPVI [ALG2], the protein stability index runs as follows: under setting [1], 2.28 ± 0.098; under setting [2], 2.39 ± 0.35.
Regarding LRLHDNPALKECIQGADTIRCVYI [CRY1], the protein stability index reads like this: under setting [1], 2.6 ± 0.38; under setting [2], 2.41 ± 0.3.
With GMLAPAAGPAFDSDPEISDVDEDE [PPFIA4], the protein stability index runs as follows: under setting [1], 5.35 ± 0.73; under setting [2], 5.54 ± 0.24.
The matching figures for WVGFDDVESFKTKVSYLKQKGLGG [CHIT1]: 2.36 ± 0.33 and 2.69 ± 0.36.
The matching figures for LWEKVMPSRYAAIYNGGVEAVSTL [SLC19A2]: 2.19 ± 0.22 and 2.07 ± 0.29.
For the sequence IQDRLSNTLQTYIRCRHPPPGSHL [VDR], the protein stability index under setting [1] is 2.73 ± 0.17 and the protein stability index under setting [2] turned out to be 2.74 ± 0.22.
The matching figures for LVLAIPLLLILVSYVHILSAILQF [OR10K2]: 3.37 ± 0.14 and 3.17 ± 0.28.
As for EVAGGGTPLLIAARYGHLDVVEYL [FEM1A], the protein stability index amounted to 2.46 ± 0.19 under setting [1] and 2.32 ± 0.34 under setting [2].
For EMDWAQMACHRCLVYLGDLSRYQN [SMG5], the protein stability index turned out to be 2.36 ± 0.4 under setting [1] and 2.17 ± 0.18 under setting [2].
The matching figures for RGIDSSSVKLRGSSLFMDTEKSGK [WEE1]: 4.91 ± 0.57 and 4.99 ± 0.25.
The matching figures for FSRVCRLHRGQLSLFCLEDKELLC [TRIM35]: 2.22 ± 0.56 and 2.19 ± 0.18.
For TQRLWDFTQSGPIVSRATGRCLEV [GALNT9], the protein stability index turned out to be 2.81 ± 0.43 under setting [1] and 3.02 ± 0.22 under setting [2].
Regarding IQLKSVADGQESTPPTPAPTSGIV [WASL], the protein stability index reads like this: under setting [1], 4.68 ± 0.21; under setting [2], 4.84 ± 0.16.
On to RRCKPKKPTRRDASPESPSKKGPI [GNAS], for which the protein stability index is, setting by setting: under setting [1], 5.15 ± 0.21; under setting [2], 5.23 ± 0.22.
The matching figures for AENYLSGGGPGDGGGADTGTGGEE [FBXO33]: 5.42 ± 0.31 and 5.55 ± 0.23.
For KEEVRAALEQREQDAVDQVKVIMD [TRIM29], the protein stability index reads like this: under setting [1], 5.23 ± 0.36; under setting [2], 5.39 ± 0.13.
Regarding GTEYTCKVYPVQEALAVLEPYARL [TRIB3], the protein stability index amounted to 2.62 ± 0.23 under setting [1] and 2.48 ± 0.33 under setting [2].
In the case of VASRNLFPKDTLMNLHVYISEHEH [CLPTM1], the protein stability index under setting [1] was 2.35 ± 0.34 and the protein stability index under setting [2] was 2.37 ± 0.51.
In the case of SRLTALTLHQRTHTEERPFKCNYC [ZNF449], the protein stability index was found to be 2.73 ± 0.23 under setting [1] and 3.03 ± 0.4 under setting [2].
The matching figures for ISLTCVSVAFAVAWFLPMPQKSLF [SLC19A2]: 3.15 ± 0.18 and 3.19 ± 0.17.
As to LRFTSGLVVALDVDATLEHVQDPQ [INTS4], the protein stability index came to 2.09 ± 0.25 under setting [1] and 2.43 ± 0.22 under setting [2].
The matching figures for MSLRLQSSSASYGGGFGGGSCQLG [KRT13]: 2.54 ± 0.11 and 2.49 ± 0.11.
Consider LLHLHQTAHADEFDCPSELQHTQE [STEAP1], for which the protein stability index runs as follows: under setting [1], 4.66 ± 0.11; under setting [2], 4.78 ± 0.11.
The matching figures for TRHYRPPEVILELGWAQPCDVWSI [CLK3]: 2.69 ± 0.65 and 2.47 ± 0.52.
In the case of GGRTALHHAALNGHVEMVNLLLAK [ANKRD44], the protein stability index is, setting by setting: under setting [1], 2.76 ± 0.35; under setting [2], 2.69 ± 0.23.
The matching figures for QRTVGQLMELCRLYHRADVEKVLR [EDARADD]: 2.38 ± 0.45 and 2 ± 0.22.
With LCAPEVISLINTRMLFWACSTNKP [FAF2], the protein stability index was 3.04 ± 0.47 under setting [1] and 2.88 ± 0.41 under setting [2].
For the sequence CKARMERDGYGMTPLLAASVTGHT [FEM1A], the protein stability index is 2.9 ± 0.32 under setting [1] and 2.87 ± 0.2 under setting [2].
For the sequence YKDFLWFFSKRFKSAAMLAVFAVS [SOAT1], the protein stability index came to 2.25 ± 0.49 under setting [1] and 2.4 ± 0.53 under setting [2].
The matching figures for FEHEMEESKKNRVEINDLDPEVFK [SPOPL]: 4.99 ± 0.39 and 5.02 ± 0.32.
On to LRDRAERIASRAIDNAADLLIFGK [SNX8], for which the protein stability index worked out at 3.28 ± 0.17 under setting [1] and 3.6 ± 0.31 under setting [2].
As for GAARSFQEVTEPAVVAVDRQAIFP [PXN], the protein stability index runs as follows: under setting [1], 4.1 ± 0.26; under setting [2], 4.04 ± 0.59.
